Blank lines part the entries; values can stand above or below the molecule they belong to.
Assays:
[1] = tested on: GFP-14-3-3β and its binding proteins; assay: GFP-14-3-3β co-IP with LC-MS/MS label-free quantification, untreated versus PP1c-treated; parameters: species or system human; details: PP1 vs untreated; label-free quantification
Experimental: (§1) HeLa Kyoto cells expressing transiently transfected pEGFP(C1)-14-3-3β or pEGFP(C1) control plasmid, were incubated with 20 nM Calyculin A (# 9902 S, Cell Signaling Technology) for 12 min. Cells were washed twice on ice with cold PBS and after addition of 500 µL lysis buffer (100 mM NaCl, 10 mM Tris, 0.1% IGEPAL, 1 mM EDTA, 1 mM EGTA, 20 nM Calyculin A, 1x cOmplete Mini protease inhibitor cocktail (Sigma), 1 mM DTT, 1 mM MnCl2) cells were scraped from plates, lysed by 10 pushes through an injection needle (21 G, BD) and the insoluble fraction was pelleted by centrifugation (10 min, 10^4 rcf, 4 °C). Supernatants were then subjected to incubation with 1 µM recombinant phosphatase or buffer for 1 h at 30 °C. Next, we subjected samples to immunoprecipitation using α-GFP nanobodies covalently coupled to agarose beads (2 h, 4 °C, obtained from the EMBL PEPcore Core Facility). Beads were then washed three times with lysis buffer and samples were eluted in 1x LDS sample buffer (Thermo Fisher Scientific) by heating to 70 °C for 10 min.
(§2) The samples were then reduced with 25 mM dithiothreitol (10 min at 70 °C) and alkylated with 55 mM chloroacetamide (room temperature, 30 min, in the dark). Proteins were run on a precast 4–12% NuPAGE gel (ThermoFisher Scientific) for about 1 cm to concentrate the sample prior to in-gel tryptic digestion, which was performed according to the standard procedures. The peptides obtained were dried to completeness and resuspended in 12 µL of buffer A (0.1% FA), and 5 µL of sample were injected per MS measurement. The experiment was carried out in three independent replicates.
(§3) The samples were analyzed by LC-MS/MS on a Dionex Ultimate 3000 nano-HPLC coupled online to a Fusion Lumos Tribrid mass spectrometer (Thermo Fisher Scientific). Peptides were delivered to a trap column (75 µm × 2 cm, packed in-house with 5 µm C18 resin; Reprosil PUR AQ, Dr. Maisch) and washed using 0.1% FA at a flow rate of 5 µL/min for 10 min. Subsequently, peptides were transferred to an analytical column (75 µm × 45 cm, packed in-house with 3 µm C18 resin; Reprosil Gold) applying a flow rate of 300 nL/min and separated using a 60 min linear gradient from 4% to 32% LC solvent B (0.1% FA, 5% DMSO in ACN) in LC solvent A (0.1% FA in 5% DMSO). The eluate from the analytical column was sprayed via a stainless steel emitter (Thermo Fisher Scientific) at a source voltage of 2.1 kV into the mass spectrometer. The transfer capillary was heated to 275 °C. The Fusion Lumos was operated in positive ionization mode and data-dependent acquisition (DDA), automatically switching between MS1 and MS2 spectrum acquisition. Full scan MS1 spectra were recorded in the Orbitrap from 360 to 1300 m/z at a resolution of 60k (automatic gain control (AGC) target value of 4e5 charges, maximum injection time (maxIT) of 50 ms). Up to 20 peptide precursors were isolated (isolation window, 1.7 m/z; maximum injection time, 25 ms; and AGC value, 1e5), fragmented by high-energy collision-induced dissociation (HCD) using 30% normalized collision energy (NCE), and analyzed at a resolution of 15k in the Orbitrap. Precursor ions that were singly charged, unassigned, or with charge states >6+ were excluded. The dynamic exclusion duration of fragmented precursor ions was 20 s.
(§4) Peptide and protein identification and LFQ were performed using MaxQuant software (version 1.6.1.0)[64] by searching the data against all canonical protein sequences as annotated in the Swissprot reference database (human proteins only, 20193 entries, downloaded 22 March 2016, internally annotated with PFAM domains) using the embedded search engine Andromeda[65]. The MaxQuant search was performed using two variable modifications; oxidation of methionine and N-terminal protein acetylation. Carbamidomethylation on cysteines was specified as a fixed modification. Trypsin (Trypsin/P) was specified as the proteolytic enzyme with up to two allowed missed cleavage sites.

GFP-14-3-3β = GFP-14-3-3β co-IP with LC-MS/MS, untreated GFP-14-3-3β versus GFP control (14-3-3 interactome); assay type: binding, human; details: untreated vs GFP; label-free quantification
Experimental: as §1, §2, §3, §4

B2: LGALS3BP (protein, UniProt Q08380 19-585, looked up)
Galectin-3-binding protein: VNDGDMRLADGGATNQGRVEIFYRGQWGTVCDNLWDLTDASVVCRALGFENATQALGRAAFGQGSGPIMLDEVQCTGTEASLADCKSLGWLKSNCRHERDAGVVCTNETRSTHTLDLSRELSEALGQIFDSQRGCDLSISVNVQGEDALGFCGHTVILTANLEAQALWKEPGSNVTMSVDAECVPMVRDLLRYFYSRRIDITLSSVKCFHKLASAYGARQLQGYCASLFAILLPQDPSFQMPLDLYAYAVATGDALLEKLCLQFLAWNFEALTQAEAWPSVPTDLLQLLLPRSDLAVPSELALLKAVDTWSWGERASHEEVEGLVEKIRFPMMLPEELFELQFNLSLYWSHEALFQKKTLQALEFHTVPFQLLARYKGLNLTEDTYKPRIYTSPTWSAFVTDSSWSARKSQLVYQSRRGPLVKYSSDYFQAPSDYRYYPYQSFQTPQHPSFLFQDKRVSWSLVYLPTIQSCWNYGFSCSSDELPVLGLTKSGGSDRTIAYENKALMLCEGLFVADVTDFEGWKAAIPSALDTNSSKSTSSFPCPAGHFNGFRTVIRPFYLTNSSGVD
Difference (log2), PP1 vs untreated [1]: 1.074 log2
Difference (log2), untreated vs GFP (GFP-14-3-3β): -0.5352 log2

B3: RTCB (protein, UniProt Q9Y3I0 1-505, looked up)
RNA-splicing ligase RtcB …: MSRSYNDELQFLEKINKNCWRIKKGFVPNMQVEGVFYVNDALEKLMFEELRNACRGGGVGGFLPAMKQIGNVAALPGIVHRSIGLPDVHSGYGFAIGNMAAFDMNDPEAVVSPGGVGFDINCGVRLLRTNLDESDVQPVKEQLAQAMFDHIPVGVGSKGVIPMNAKDLEEALEMGVDWSLREGYAWAEDKEHCEEYGRMLQADPNKVSARAKKRGLPQLGTLGAGNHYAEIQVVDEIFNEYAAKKMGIDHKGQVCVMIHSGSRGLGHQVATDALVAMEKAMKRDKIIVNDRQLACARIASPEGQDYLKGMAAAGNYAWVNRSSMTFLTRQAFAKVFNTTPDDLDLHVIYDVSHNIAKVEQHVVDGKERTLLVHRKGSTRAFPPHHPLIAVDYQLTGQPVLIGGTMGTCSYVLTGTEQGMTETFGTTCHGAGRALSRAKSRRNLDFQDVLDKLADMGIAIRVASPKLVMEEAPESYKNVTDVVNTCHDAGISKKAIKLRPIAVIKG
Difference (log2), PP1 vs untreated [1]: 1.104 log2
Difference (log2), untreated vs GFP (GFP-14-3-3β): -0.6754 log2

B6: ATP2A2 (protein, UniProt P16615 1-1042, looked up)
Sarcoplasmic/endoplasmic …: MENAHTKTVEEVLGHFGVNESTGLSLEQVKKLKERWGSNELPAEEGKTLLELVIEQFEDLLVRILLLAACISFVLAWFEEGEETITAFVEPFVILLILVANAIVGVWQERNAENAIEALKEYEPEMGKVYRQDRKSVQRIKAKDIVPGDIVEIAVGDKVPADIRLTSIKSTTLRVDQSILTGESVSVIKHTDPVPDPRAVNQDKKNMLFSGTNIAAGKAMGVVVATGVNTEIGKIRDEMVATEQERTPLQQKLDEFGEQLSKVISLICIAVWIINIGHFNDPVHGGSWIRGAIYYFKIAVALAVAAIPEGLPAVITTCLALGTRRMAKKNAIVRSLPSVETLGCTSVICSDKTGTLTTNQMSVCRMFILDRVEGDTCSLNEFTITGSTYAPIGEVHKDDKPVNCHQYDGLVELATICALCNDSALDYNEAKGVYEKVGEATETALTCLVEKMNVFDTELKGLSKIERANACNSVIKQLMKKEFTLEFSRDRKSMSVYCTPNKPSRTSMSKMFVKGAPEGVIDRCTHIRVGSTKVPMTSGVKQKIMSVIREWGSGSDTLRCLALATHDNPLRREEMHLEDSANFIKYETNLTFVGCVGMLDPPRIEVASSVKLCRQAGIRVIMITGDNKGTAVAICRRIGIFGQDEDVTSKAFTGREFDELNPSAQRDACLNARCFARVEPSHKSKIVEFLQSFDEITAMTGDGVNDAPALKKAEIGIAMGSGTAVAKTASEMVLADDNFSTIVAAVEEGRAIYNNMKQFIRYLISSNVGEVVCIFLTAALGFPEALIPVQLLWVNLVTDGLPATALGFNPPDLDIMNKPPRNPKEPLISGWLFFRYLAIGCYVGAATVGAAAWWFIAADGGPRVSFYQLSHFLQCKEDNPDFEGVDCAIFESPYPMTMALSVLVTIEMCNALNSLSENQSLLRMPPWENIWLVGSICLSMSLHFLILYVEPLPLIFQITPLNVTQWLMVLKISLPVILMDETLKFVARNYLEPGKECVQPATKSCSFSACTDGISWPFVLLIMPLVIWVYSTDTNFSDMFWS
Difference (log2), PP1 vs untreated [1]: 1.1435 log2
Difference (log2), untreated vs GFP (GFP-14-3-3β): -0.4794 log2

Second part, led by results:

Difference (log2), PP1 vs untreated [1]: 1.183 log2
B1: CEP131 (protein, UniProt Q9UPN4 1-1083, looked up)
Centrosomal protein of 131 kDa: MKGTRAIGSVPERSPAGVDLSLTGLPPPVSRRPGSAATTKPIVRSVSVVTGSEQKRKVLEATGPGGSQAINNLRRSNSTTQVSQPRSGSPRPTEPTDFLMLFEGSPSGKKRPASLSTAPSEKGATWNVLDDQPRGFTLPSNARSSSALDSPAGPRRKECTVALAPNFTANNRSNKGAVGNCVTTMVHNRYTPSERAPPLKSSNQTAPSLNNIIKAATCEGSESSGFGKLPKNVSSATHSARNNTGGSTGLPRRKEVTEEEAERFIHQVNQATVTIQRWYRHQVQRRGAGAARLEHLLQAKREEQRQRSGEGTLLDLHQQKEAARRKAREEKARQARRAAIQELQQKRALRAQKASTAERGPPENPRETRVPGMRQPAQELSPTPGGTAHQALKANNTGGGLPAAGPGDRCLPTSDSSPEPQQPPEDRTQDVLAQDAAGDNLEMMAPSRGSAKSRGPLEELLHTLQLLEKEPDVLPRPRTHHRGRYAWASEVTTEDDASSLTADNLEKFGKLSAFPEPPEDGTLLSEAKLQSIMSFLDEMEKSGQDQLDSQQEGWVPEAGPGPLELGSEVSTSVMRLKLEVEEKKQAMLLLQRALAQQRDLTARRVKETEKALSRQLQRQREHYEATIQRHLAFIDQLIEDKKVLSEKCEAVVAELKQEDQRCTERVAQAQAQHELEIKKLKELMSATEKARREKWISEKTKKIKEVTVRGLEPEIQKLIARHKQEVRRLKSLHEAELLQSDERASQRCLRQAEELREQLEREKEALGQQERERARQRFQQHLEQEQWALQQQRQRLYSEVAEERERLGQQAARQRAELEELRQQLEESSSALTRALRAEFEKGREEQERRHQMELNTLKQQLELERQAWEAGRTRKEEAWLLNREQELREEIRKGRDKEIELVIHRLEADMALAKEESEKAAESRIKRLRDKYEAELSELEQSERKLQERCSELKGQLGEAEGENLRLQGLVRQKERALEDAQAVNEQLSSERSNLAQVIRQEFEDRLAASEEETRQAKAELATLQARQQLELEEVHRRVKTALARKEEAVSSLRTQHEAAVKRADHLEELLEQHRRPTPSTK
Difference (log2), untreated vs GFP (GFP-14-3-3β): 0.2298 log2

Difference (log2), PP1 vs untreated [1]: 1.129 log2
B4: CD55 (protein, UniProt P08174 35-353, looked up)
Complement decay-accelerating …: DCGLPPDVPNAQPALEGRTSFPEDTVITYKCEESFVKIPGEKDSVICLKGSQWSDIEEFCNRSCEVPTRLNSASLKQPYITQNYFPVGTVVEYECRPGYRREPSLSPKLTCLQNLKWSTAVEFCKKKSCPNPGEIRNGQIDVPGGILFGATISFSCNTGYKLFGSTSSFCLISGSSVQWSDPLPECREIYCPAPPQIDNGIIQGERDHYGYRQSVTYACNKGFTMIGEHSIYCTVNNDEGEWSGPPPECRGKSLTSKVPPTVQKPTTVNVPTTEVSPTSQKTTTKTTTPNAQATRSTPVSRTTKHFHETTPNKGSGTTS
Difference (log2), untreated vs GFP (GFP-14-3-3β): -1.764 log2

Difference (log2), PP1 vs untreated [1]: 1.116 log2
B5: ABCD3 (protein, UniProt P28288 1-659, looked up)
ATP-binding cassette …: MAAFSKYLTARNSSLAGAAFLLLCLLHKRRRALGLHGKKSGKPPLQNNEKEGKKERAVVDKVFFSRLIQILKIMVPRTFCKETGYLVLIAVMLVSRTYCDVWMIQNGTLIESGIIGRSRKDFKRYLLNFIAAMPLISLVNNFLKYGLNELKLCFRVRLTKYLYEEYLQAFTYYKMGNLDNRIANPDQLLTQDVEKFCNSVVDLYSNLSKPFLDIVLYIFKLTSAIGAQGPASMMAYLVVSGLFLTRLRRPIGKMTITEQKYEGEYRYVNSRLITNSEEIAFYNGNKREKQTVHSVFRKLVEHLHNFILFRFSMGFIDSIIAKYLATVVGYLVVSRPFLDLSHPRHLKSTHSELLEDYYQSGRMLLRMSQALGRIVLAGREMTRLAGFTARITELMQVLKDLNHGKYERTMVSQQEKGIEGVQVIPLIPGAGEIIIADNIIKFDHVPLATPNGDVLIRDLNFEVRSGANVLICGPNGCGKSSLFRVLGELWPLFGGRLTKPERGKLFYVPQRPYMTLGTLRDQVIYPDGREDQKRKGISDLVLKEYLDNVQLGHILEREGGWDSVQDWMDVLSGGEKQRMAMARLFYHKPQFAILDECTSAVSVDVEGYIYSHCRKVGITLFTVSHRKSLWKHHEYYLHMDGRGNYEFKQITEDTVEFGS
Difference (log2), untreated vs GFP (GFP-14-3-3β): -0.7267 log2
